From patent US20030104423A1 (WISCONSIN ALUMNI RESEARCH FOUNDATION, published 2003) come the findings set out here.

Sequences and labels used below:
B1: His6-HMK-β′1-280 (pTA523) (enzyme)
chain: MKDLLKFLKAQTKTEEFDAIKIALASPDMIRSWSFGEVKKPETINYRTFKPERDGLFCARIFGPVKDYECLCGKYKRLKHRGVICEKCGVEVTQTKVRRERMGHIELASPTAHIWFLKSLPSRIGLLLDMPLRDIERVLYFESYVVIEGGMTNLERQQILTEEQYLDALEEFGDEFDAKMGAEAIQALLKSMDLEQECEQLREELNETNSETKRKKLTKRIKLLEAFVQSGNKPEWMILTVLPVLPPDLRPLVPLDGGRFATSDLNDLYRRVINRNNRLK
notes: range 1-280
B2: His6-tagged β′200-309 (pTA538) (enzyme)
chain: QLREELNETNSETKRKKLTKRIKLLEAFVQSGNKPEWMILTVLPVLPPDLRPLVPLDGGRFATSDLNDLYRRVINRNNRLKRLLDLAAPDIIVRNEKRMLQEAVDALLDN
B3: β′260-309 with C-terminal His6 (pTA546) (enzyme)
chain: FATSDLNDLYRRVINRNNRLKRLLDLAAPDIIVRNEKRMLQEAVDALLDNHHHHHH
B4: His6-tagged β′100-309 (pTA533) (enzyme)
chain: ERMGHIELASPTAHIWFLKSLPSRIGLLLDMPLRDIERVLYFESYVVIEGGMTNLERQQILTEEQYLDALEEFGDEFDAKMGAEAIQALLKSMDLEQECEQLREELNETNSETKRKKLTKRIKLLEAFVQSGNKPEWMILTVLPVLPPDLRPLVPLDGGRFATSDLNDLYRRVINRNNRLKRLLDLAAPDIIVRNEKRMLQEAVDALLDN
B5: His6-tagged β′33-309 (pTA531) (enzyme)
chain: WSFGEVKKPETINYRTFKPERDGLFCARIFGPVKDYECLCGKYKRLKHRGVICEKCGVEVTQTKVRRERMGHIELASPTAHIWFLKSLPSRIGLLLDMPLRDIERVLYFESYVVIEGGMTNLERQQILTEEQYLDALEEFGDEFDAKMGAEAIQALLKSMDLEQECEQLREELNETNSETKRKKLTKRIKLLEAFVQSGNKPEWMILTVLPVLPPDLRPLVPLDGGRFATSDLNDLYRRVINRNNRLKRLLDLAAPDIIVRNEKRMLQEAVDALLDN
B6: His6-tagged β′178-309 (pTA537) (enzyme)
chain: AKMGAEAIQALLKSMDLEQECEQLREELNETNSETKRKKLTKRIKLLEAFVQSGNKPEWMILTVLPVLPPDLRPLVPLDGGRFATSDLNDLYRRVINRNNRLKRLLDLAAPDIIVRNEKRMLQEAVDALLDN
B7: His6-tagged β′60-309 (pTA532) (enzyme)
chain: RIFGPVKDYECLCGKYKRLKHRGVICEKCGVEVTQTKVRRERMGHIELASPTAHIWFLKSLPSRIGLLLDMPLRDIERVLYFESYVVIEGGMTNLERQQILTEEQYLDALEEFGDEFDAKMGAEAIQALLKSMDLEQECEQLREELNETNSETKRKKLTKRIKLLEAFVQSGNKPEWMILTVLPVLPPDLRPLVPLDGGRFATSDLNDLYRRVINRNNRLKRLLDLAAPDIIVRNEKRMLQEAVDALLDN
B8: His6-HMK-β′1-300 (pTA524) (enzyme)
chain: MKDLLKFLKAQTKTEEFDAIKIALASPDMIRSWSFGEVKKPETINYRTFKPERDGLFCARIFGPVKDYECLCGKYKRLKHRGVICEKCGVEVTQTKVRRERMGHIELASPTAHIWFLKSLPSRIGLLLDMPLRDIERVLYFESYVVIEGGMTNLERQQILTEEQYLDALEEFGDEFDAKMGAEAIQALLKSMDLEQECEQLREELNETNSETKRKKLTKRIKLLEAFVQSGNKPEWMILTVLPVLPPDLRPLVPLDGGRFATSDLNDLYRRVINRNNRLKRLLDLAAPDIIVRNEKRMLQ
notes: range 1-300
B9: β′60-309, untagged (pTA528) (enzyme)
chain: RIFGPVKDYECLCGKYKRLKHRGVICEKCGVEVTQTKVRRERMGHIELASPTAHIWFLKSLPSRIGLLLDMPLRDIERVLYFESYVVIEGGMTNLERQQILTEEQYLDALEEFGDEFDAKMGAEAIQALLKSMDLEQECEQLREELNETNSETKRKKLTKRIKLLEAFVQSGNKPEWMILTVLPVLPPDLRPLVPLDGGRFATSDLNDLYRRVINRNNRLKRLLDLAAPDIIVRNEKRMLQEAVDALLDN
B10: β′1-319 wild type, untagged (pTA620) (enzyme)
chain: MKDLLKFLKAQTKTEEFDAIKIALASPDMIRSWSFGEVKKPETINYRTFKPERDGLFCARIFGPVKDYECLCGKYKRLKHRGVICEKCGVEVTQTKVRRERMGHIELASPTAHIWFLKSLPSRIGLLLDMPLRDIERVLYFESYVVIEGGMTNLERQQILTEEQYLDALEEFGDEFDAKMGAEAIQALLKSMDLEQECEQLREELNETNSETKRKKLTKRIKLLEAFVQSGNKPEWMILTVLPVLPPDLRPLVPLDGGRFATSDLNDLYRRVINRNNRLKRLLDLAAPDIIVRNEKRMLQEAVDALLDNGRRGRAITGS
B11: β′ mutant N274P (enzyme)
chain: MKDLLKFLKAQTKTEEFDAIKIALASPDMIRSWSFGEVKKPETINYRTFKPERDGLFCARIFGPVKDYECLCGKYKRLKHRGVICEKCGVEVTQTKVRRERMGHIELASPTAHIWFLKSLPSRIGLLLDMPLRDIERVLYFESYVVIEGGMTNLERQQILTEEQYLDALEEFGDEFDAKMGAEAIQALLKSMDLEQECEQLREELNETNSETKRKKLTKRIKLLEAFVQSGNKPEWMILTVLPVLPPDLRPLVPLDGGRFATSDLNDLYRRVIPRNNRLKRLLDLAAPDIIVRNEKRMLQEAVDALLDNGRRGRAITGS
B12: β′1-319 Y269A (pTA611) (enzyme)
chain: MKDLLKFLKAQTKTEEFDAIKIALASPDMIRSWSFGEVKKPETINYRTFKPERDGLFCARIFGPVKDYECLCGKYKRLKHRGVICEKCGVEVTQTKVRRERMGHIELASPTAHIWFLKSLPSRIGLLLDMPLRDIERVLYFESYVVIEGGMTNLERQQILTEEQYLDALEEFGDEFDAKMGAEAIQALLKSMDLEQECEQLREELNETNSETKRKKLTKRIKLLEAFVQSGNKPEWMILTVLPVLPPDLRPLVPLDGGRFATSDLNDLARRVINRNNRLKRLLDLAAPDIIVRNEKRMLQEAVDALLDNGRRGRAITGS
B13: β′1-319 N309D (pTA619) (enzyme)
chain: MKDLLKFLKAQTKTEEFDAIKIALASPDMIRSWSFGEVKKPETINYRTFKPERDGLFCARIFGPVKDYECLCGKYKRLKHRGVICEKCGVEVTQTKVRRERMGHIELASPTAHIWFLKSLPSRIGLLLDMPLRDIERVLYFESYVVIEGGMTNLERQQILTEEQYLDALEEFGDEFDAKMGAEAIQALLKSMDLEQECEQLREELNETNSETKRKKLTKRIKLLEAFVQSGNKPEWMILTVLPVLPPDLRPLVPLDGGRFATSDLNDLYRRVINRNNRLKRLLDLAAPDIIVRNEKRMLQEAVDALLDDGRRGRAITGS
B14: β′1-319 N266D (pTA610) (enzyme)
chain: MKDLLKFLKAQTKTEEFDAIKIALASPDMIRSWSFGEVKKPETINYRTFKPERDGLFCARIFGPVKDYECLCGKYKRLKHRGVICEKCGVEVTQTKVRRERMGHIELASPTAHIWFLKSLPSRIGLLLDMPLRDIERVLYFESYVVIEGGMTNLERQQILTEEQYLDALEEFGDEFDAKMGAEAIQALLKSMDLEQECEQLREELNETNSETKRKKLTKRIKLLEAFVQSGNKPEWMILTVLPVLPPDLRPLVPLDGGRFATSDLDDLYRRVINRNNRLKRLLDLAAPDIIVRNEKRMLQEAVDALLDNGRRGRAITGS
B15: β′ mutant L299D (enzyme)
chain: MKDLLKFLKAQTKTEEFDAIKIALASPDMIRSWSFGEVKKPETINYRTFKPERDGLFCARIFGPVKDYECLCGKYKRLKHRGVICEKCGVEVTQTKVRRERMGHIELASPTAHIWFLKSLPSRIGLLLDMPLRDIERVLYFESYVVIEGGMTNLERQQILTEEQYLDALEEFGDEFDAKMGAEAIQALLKSMDLEQECEQLREELNETNSETKRKKLTKRIKLLEAFVQSGNKPEWMILTVLPVLPPDLRPLVPLDGGRFATSDLNDLYRRVINRNNRLKRLLDLAAPDIIVRNEKRMDQEAVDALLDNGRRGRAITGS
B16: β′ mutant E301P (enzyme)
chain: MKDLLKFLKAQTKTEEFDAIKIALASPDMIRSWSFGEVKKPETINYRTFKPERDGLFCARIFGPVKDYECLCGKYKRLKHRGVICEKCGVEVTQTKVRRERMGHIELASPTAHIWFLKSLPSRIGLLLDMPLRDIERVLYFESYVVIEGGMTNLERQQILTEEQYLDALEEFGDEFDAKMGAEAIQALLKSMDLEQECEQLREELNETNSETKRKKLTKRIKLLEAFVQSGNKPEWMILTVLPVLPPDLRPLVPLDGGRFATSDLNDLYRRVINRNNRLKRLLDLAAPDIIVRNEKRMLQPAVDALLDNGRRGRAITGS
B17: β′ mutant V272D (enzyme)
chain: MKDLLKFLKAQTKTEEFDAIKIALASPDMIRSWSFGEVKKPETINYRTFKPERDGLFCARIFGPVKDYECLCGKYKRLKHRGVICEKCGVEVTQTKVRRERMGHIELASPTAHIWFLKSLPSRIGLLLDMPLRDIERVLYFESYVVIEGGMTNLERQQILTEEQYLDALEEFGDEFDAKMGAEAIQALLKSMDLEQECEQLREELNETNSETKRKKLTKRIKLLEAFVQSGNKPEWMILTVLPVLPPDLRPLVPLDGGRFATSDLNDLYRRDINRNNRLKRLLDLAAPDIIVRNEKRMLQEAVDALLDNGRRGRAITGS
B18: β′1-319 K280E (pTA613) (enzyme)
chain: MKDLLKFLKAQTKTEEFDAIKIALASPDMIRSWSFGEVKKPETINYRTFKPERDGLFCARIFGPVKDYECLCGKYKRLKHRGVICEKCGVEVTQTKVRRERMGHIELASPTAHIWFLKSLPSRIGLLLDMPLRDIERVLYFESYVVIEGGMTNLERQQILTEEQYLDALEEFGDEFDAKMGAEAIQALLKSMDLEQECEQLREELNETNSETKRKKLTKRIKLLEAFVQSGNKPEWMILTVLPVLPPDLRPLVPLDGGRFATSDLNDLYRRVINRNNRLERLLDLAAPDIIVRNEKRMLQEAVDALLDNGRRGRAITGS

The target in one assay is T1, σ70, native, untagged (pLN12) (Escherichia coli, UniProt P00579 1-613).
T1 construct: range 1-613; also called native ?^70
The experiment in a line: Ni-NTA co-immobilization, SDS-PAGE.
For B1, the binding result is on record as “no binding”. On the same count and under the same terms, as for B2, the entry is “binds”. On the same count and under the same terms, as for B3, the entry is “binds”; as for B4, “binds”; as for B5, “binds”.

As to B6, the binding result was “binds”. Still for that read-out and setting: as for B7, the entry is “binds”. Still for that read-out and setting: in the case of B8 it was “no binding”.

Another assay concerns the target T2, HMK-His6-σ70, 32P-labeled (pHMK-His6-σ70) (Escherichia coli, UniProt P00579 1-613).
T2 construct: range 1-613; also called ^32P-labeled ?^70; HMK-?^70
The experiment in a line: far-Western of whole cell lysate, 32P-σ70 probe.
As for B9, the binding result was “binds”.

The target of another assay is T2, HMK-His6-σ70, 32P-labeled …. The experiment in a line: far-Western binding, 32P-σ70 probe; grade.
Consider B10, for which the binding result is reported as “binds”. Same read-out and setting: as for B11, the entry is “no binding”; as for B12, “binds”; as for B13, “binds”.

As for B14, the binding result is “binds”. On the same count and under the same terms, as for B15, the entry is “no binding”; as for B16, “no binding”; as for B17, “no binding”. The same measure, in the same setting: as for B18, the entry is “binds”.
